This passage reports Km and kcat results from paper PMC5477544, “Structural and mechanistic basis of differentiated inhibitors of the acute pancreatitis target kynurenine-3-monooxygenase” (Nature Communications, 2017).

Substrate in the series: Nc1ccccc1C(=O)CC(N)C(=O)O
Briefly: purified protein, by the assay type. The following applies: other: human KMO, 200 μM NADPH.

B1: human KMO (Homo sapiens) (protein)
chain: MDSSVIQRKKVAVIGGGLVGSLQACFLAKRNFQIDVYEAREDTRVATFTRGRSINLALSHRGRQALKAVGLEDQIVSQGIPMRARMIHSLSGKKSAIPYGTKSQYILSVSRENLNKDLLTAAEKYPNVKMHFNHRLLKCNPEEGMITVLGSDKVPKDVTCDLIVGCDGAYSTVRSHLMKKPRFDYSQQYIPHGYMELTIPPKNGDYAMEPNYLHIWPRNTFMMIALPNMNKSFTCTLFMPFEEFEKLLTSNDVVDFFQKYFPDAIPLIGEKLLVQDFFLLPAQPMISVKCSSFHFKSHCVLLGDAAHAIVPFFGQGMNAGFEDCLVFDELMDKFSNDLSLCLPVFSRLRIPDDHAISDLSMYNYIEMRAHVNSSWFIFQKNMERFLHAIMPSTFIPLYTMVTFSRIRYHEAVQRWHWQKKVINKGLFFLGSLIAISSTYLLIHYMSPRSFLRLRRPWNWIAHFRNTTCFPAKAVDSLEQISNLISR
The Km is the substrate concentration at which the rate is half of its maximum. In general, kcat refers to the maximal rate divided by the concentration of active sites. Take B1: the Km came out at 2 µM and the kcat turned out to be 0.24 s⁻¹.
